# Measurements: the DeepSol protein solubility set
# Test: soluble on expression in E. coli; label from the status in PepcDB or PDB records
row,Sequence,soluble on expression in E. coli
1,MSLLLFEQPVDLEKNNEDDTNIKPFAISRHFLLKLLLCGIILIELLLYSKCPKPIDNGPRTIANRSNTYFNGTHDFKTLTILISIDGFHPRLIDAKYTPFLYNLHNLRSPYDMNITTAPYMIPSFPTQTFPNHWSMVTGKYPIEHGIVSNIFWDNFTSSEFRPNNLDARIWSNTADPIWQLLQTESQGEYKVATHMWPGSEVVYEDHGDVPRERMPFYFGKFNQWEKLQDKLAQIFRYIDMPQLKDRPELVISYIPNVDSYGHSFGYDLRDKRLQKLIGEVDGFFLDLIEGLQKRNLLKISNVMIVSDHGMSNVNANDGEHVVVWERVFPADAMSAFISHLYNEGPMMMVCLKNPRDKQWICDLIEAQLEKAYGDEISRKFHVILKEDFDPSWKYFQYDNRKHRYDDRVGDIWILADEYYAIVKEMGDVPIGIMGTHGYNFNNCSDMASIFIGMGPMFNNEVVPPFENIEVYNMLIKASALLGEEKTKKEKSLLQEGHHHHHH,not soluble
2,MSLKNEIQFEVFGDYALFTDPLTKIGGEKLSYSVPTYQALKGIVESIYWKPTIIFTIDKLRVMKPIQMESKGVRPIDYGGGNTLAHYTYLKDVHYQVKAHFDFNFNRPDLAFDRNEGKHYSILQRSLKAGGRRDIFLGTRECQGYVAPCEFGSGSGYYDGQGEYRLGTMVHGFNYPDETGQNQLDVRLWPAVMNDGYIKFPKPEDCTMIRPIKEMEPKEFKRDDIQSVEQLSYEVGGEEGHHHHHH,soluble
3,MGSDKIHHHHHHMDFIEVYPNAIPDELCDRLIETVNTHPGVIDGITGHGVDLEKKISRDITMDNFQELLPLRNELLNYTLKHSAQYFEKYALGLMGAVAVTLADEQGKPQTLTPDNFDTLGRHRVQPLVQYLYRSGTINIQHYQQGKGGYPHWHSEQFPQMGHNEALHRVVLYMFYLNDVEEGGETEFFYQQRKIKPKKGTMVIAPAGFTHSHRGNMPISGDKYIATSWVMFNRAEKLYAPVG,not soluble
4,MATLDVNPELYQAQLADKIARLKAMFVDYSMPELEVFESPVANYRMRAEFRIWHEGDDMYYIMFNQETREKYRVDQFPAASRLINDLMPLLMDAMKGSPILRHKLFQVDFLSTLSGEILVSLLYHRQLSEEWITAAQALKQRLNDEGFNLNLIGRARKMKVVLDRDYVVENLQVNGQPYVYKQVENSFTQPNAKVAEKMLEWAVDCTQESKGDLLELYCGNGNFSLALAQNFERVLATELAKPSVEAAQFNIAANQIGNVQIIRMSAEEFTQAMEGKREFNRLKDAGVDLQSYRCNTIFVDPPRSGMDIDTCKMVQGYERILYISCNPETLQENLQVLGETHQVVRFALFDQFPYTHHMEAGVMLERKK,not soluble
5,MSLEGKTIGITAIGTDHDWDLKAYQAQIAEIERLGGTAIALDAGRNDQTQVSQIQTLIAQKPDAIIEQLGNLDVLNPWLQKINDAGIPLFTVDTATPHAINNTTSNNYSIGAELALQMVADLGGKGNVLVFNGFYSVPVCKIRYDQMKYVLEAFPDVKIIEPELRDVIPNTIQSAYSNVTDMLTKYPNEGDVGAIWACWDVPMIGATQALQAAGRTDIRTYGVDGSPEFVEMVADPESPAGAVAAQQPSEIGKLAVQNVARHLAGQEVKPFTFAPAVLITKENAAETAADFLPKEGHHHHHH,soluble
6,MLPFFKELQTCTEMLEKNPQDATALFQKAVLLYKARRFEAALQLIEQVLEIVPDDFRVWYNRGVVLSEMGRLEDALAAYDRVIELEPVFEMAWDNKGVVLARLGRFEEALETYEKVLLRNPKYAEAWAGKGSVLSALDRKEEALEAYLSALKIRPDYLEALKSVGSLFSRLGRYEEALAAYDTALQAAPEAPELWAGRGLVLSELDRQEEALQSCSRALELKPGFAPALEVKVKILSEIGRQKARASQLEHHHHHH,soluble
7,MSRAEFIRFLQVLEEDLPFRALFQEADPEEILKLADQHGFIFSDEIKGRFLNRWAGVYFCPFANDVGRLCPKMVPEGFSTLLHYSQTTCTKEDKVERFDFRAGGYYEGVKAVTG,not soluble
8,YDRRVHRFRKNWERIIPTHSKIQYAGNMGLLSFGTGWDYGKRNQWETDLLLGFIPKYSSKKAKVTMTLKQNYMPWSINLGKGFSTEPLSCGLYLNTVFGNQFWVSEPERYPKGYYGFSSKVRIHVFMGQRLTYDIDPNRRFLAKSVTFFYEISTCDLYLISGVTNSYLRPRDYLSLSFGLKFQWL,not soluble
9,MAQKPLRLLACGDVEGKFDILFNRVQAIQKKSGNFDLLLCVGNFFGSTQDAEWEEYKTGIKKVPIQTYVLGANNQETVKYFQDADGCELAENITYLGRKGIFTGSSGLQIVYLSGTESLNEPVPGYSFSPKDVSSLRMMLCTTSQFKGVDILLTSPWPKCVGNFGNSSGEVDTKKCGSALVSSLATGLKPRYHFAALEKTYYERLPYRNHIILQENAQHATRFIALANVGNPEKKKYLYAFSIVPMKLMDAAELVKQPPDVTENPYRKSGQEASIGKQILAPVEESACQFFFDLNEKQGRKRSSTGRDSKSSPHPKQPRKPPQPPGPCWFCLASPEVEKHLVVNIGTHCYLALAKGGLSDDHVLILPIGHYQSVVELSAEVVEEVEKYKATLRRFFKSRGKWCVVFERNYKSHHLQLQVIPVPISCSTTDDIKDAFITQAQEQQIELLEIPEHSDIKQIAQPGAAYFYVELDTGEKLFHRIKKNFPLQFGREVLASEAILNVPDKSDWRQCQISKEDEETLARRFRKDFEPYDFTLDD,soluble
10,MGHHHHHHAKAVAPTTGWKQENGMWYFYNTDGSMATGWVQVNGSWYYLNSNGSMKVNQWFQVGGKWYYVNTSGELAVNTSIDGYRVNDNGEWVR,soluble
11,MRLDRYLSNSGVGTRKEVKKLIKQGRVTVNGRVVLDPGHPVLENDAVALDGEVVRFHKKVYILFYKPSGYVTSTKDPHSETIMEFLPPLKGIFPVGRLDKDAEGLLIITNDGDFAHRVISPKWSVEKEYIVKVEGEVTEDKIEKLKNGVTLRDGFFAKAKRVEKLSNDTLKIVITEGKYHQIKRMTAAVGLKTVHLKRTRIGGLVLPDDMKPGEYRFLSEEEVKKVFEREDQKEDTPRS,not soluble
12,MPRTHGYAPIGKRCHGKCNWHARGRINVIGALIGKCLLTVGLFKNNIDADTFLGWTIHDLLPKLPPASIVVMDNATFRKRQDIQNVITRGGHTLEYLPAYSPDLNPIEHKWAQTKAVRKQQNQTVEQLFKIESFYVT,not soluble
13,GAMGPREVTMKKGDILTLLNSTNKDWWKVEVNDRQGFVPAAYVKKLDSGTGKELVLALYDYQESGDNAPSYSPPPPP,soluble
14,MIAEAAAVEVQANEAPVVAPIMYKVESNDGKVFEISDEAVKQSNILSNLISTCAPEDVASMDPIPITNVTGNILKMVIEWCEKHKGEALPVEDDSVPKNINVPEWDTNFLKIDNEVLFDLIVACNYLDVPGLMNYGCKMVANMAIGKSPDELRIIFAIPTDEEDEAAERAAKEKAEAEKKAIADKDAAEPSTSK,soluble
15,MGSDKIHHHHHHMQQSTPYLSFRGIGKTFPGVKALTDISFDCYAGQVHALMGENGAGKSTLLKILSGNYAPTTGSVVINGQEMSFSDTTAALNAGVAIIYQELHLVPEMTVAENIYLGQLPHKGGIVNRSLLNYEAGLQLKHLGMDIDPDTPLKYLSIGQWQMVEIAKALARNAKIIAFDEPTSSLSAREIDNLFRVIRELRKEGRVILYVSHRMEEIFALSDAITVFKDGRYVKTFTDMQQVDHDALVQAMVGRDIGDIYGWQPRSYGEERLRLDAVKAPGVRTPISLAVRSGEIVGLFGLVGAGRSELMKGMFGGTQITAGQVYIDQQPIDIRKPSHAIAAGMMLCPEDRKAEGIIPVHSVRDNINISARRKHVLGGCVINNGWEENNADHHIRSLNIKTPGAEQLIMNLSGGNQQKAILGRWLSEEMKVILLDEPTRGIDVGAKHEIYNVIYALAAQGVAVLFASSDLPEVLGVADRIVVMREGEIAGELLHEQADERQALSLAMPKVSQAVA,not soluble
16,MLKTNSSRDGKIKLTVDQMLGKLARWIRLMGYDVYYPAGNVSDNEIIEVSKNEGRILITKDYELYSRYPLSIYELYSNIDDQLYDFVFHFRKRTEEEFKRCPVCNGKLVKVYASPHVLNHRDLYRCEFCGKLYWKGTHYKKIYRKLKSLEKKSGAGRLEHHHHHH,not soluble
17,MALSKIDTEIEQVDQEKYLRQATSYYQPLEKPLKYGPEVNSLSDLVAALHREFESNYVNIEMVNHLMLSYKSNPREWRKYAKFDRYTYTRNLVDAGNGKFNLLILCWGEGHGSSVHDHADSHCFMKMLKGDLREKRYEYPNRSARDNGRSHHPDGEIDSRELVEIGETPIAVNDVAYINDNLGLHRVENPSHSDTSVSLHLYCPPFDTCSVFQDNLKKTTAKVTFWSKYGVRTKQNEQLEHHHHHH,not soluble
18,SLGSVLVDLQIATENIEGLPTEEQIVQWATGAVQPEGNEVEMTVRIVDEAESHELNLTYRGKDRPTNVLSFPFECPDEVELPLLGDLVICRQVVEREASEQEKPLMAHWAHMVVHGSLHLLGYDHIEDDEAEEMESLETQIMQGLGFDDPYLAEK,soluble
19,MSLKALDEPPYLTVGTDVSAKYRGAFCEAKIKTAKRLVKVKVTFRHDSSTVEVQDDHIKGPMKVGAIVEVKNLDGAYQEAVINKLTDASWYTVVFDDGDEKTLRRSSLCLKGERHFAESETLDQLPLTNPEHFGTPVIGKKTNRGRRSNHIPEEESSSSSSDEDEDDRKQIDELLGKVVCVDYISLDKKKALWFPALVVCPDCSDEIAVKKDNIMVRSFKDGKFTSVPRKDVHEITSDTAPKPDAVLKQAFEQALEFHKSRTIPANWKTELKEDSSSSEAEEEEEEEDDEKEKEDNSSEEEEEIEPFPEERENFLQQLYKFMEDRGTPINKRPVLGYRNLNLFKLFRLVHKLGGFDNIESGAVWKQVYQDLGIPVLNSAAGYNVKCAYKKYLYGFEEYCRSANIEFQMALPEKVVNKQCKECENVKEIKVKEENETEIKEIKMEEERNIIPREGHHHHHH,soluble
20,PTANIMFDRRVVRGNTYAARILPADATQTQTKGPSPASTKKRTTRTLPPRTPEAVDGRRHIDIQTDVYLEELTDTVPEADTSTQTDAFLDRPPTPLFVPQKTGTDAITQIENGDLFDFDFEVEPILEVLVGKVLEQGLMEVLEEEELAAMRAHQEHFEQIRNAELVATQRMEAAERRKLEEKERRMQQERERVERERVVRQKVAASAFARGYLSGIVNTVFDRLVSSGYIYDPVMREVETAFMPWLKEQAIGYLARGVVARRVVDKLVEDAAAALAANRSTLADKAASTAATVDAWAERQAKMEAELQGKELEAVRRRPTFVLRELKPAVASADAVEAAAAELTAQAEEAANAKWEA,not soluble
21,MFKKLSVLALAMIISLSITACNSKENKANDESNTKVTTADDSKEKETLFVYSGAGLKKPMDEIAKKFEKENNVKVEYSYAGSAQLIAQIETSHKGDVFIVGSEPIYSKAFEKELVGEHKTVAHHTPAIVVPKGNPANIQKLEDLNKDGVKLILGDKESNAIGKTTQKILEKNNLKSINDNVVSTAATVNEMIVQLTSSKADATIATKDSVFGNEDVEVIEIAQDKNIDQLISAGIVNYSDKKDLANKFINYIESDEAKQIFKKYGFEPVK,not soluble
22,MSTVRSIYYRGSLEHCNYTCSYCPFGRKSVSADTTEDQEALDRFISRIGGWKYGSLRILIIPYGEAMIHRYYREGIMRLAAMPHVIGVSCQTNLSFSVSRFLDEAEAEQADVSKFRFWASYHPEMVGVGEFASKVEMLRAAGIGVCAGAVGDPSAKEQIRKLRQLLDPSVYLFVNAMQGLRKPLSEEDIRFFGEIDNLFDYDRRNAKACLDGCVGGRETLFIDRKGDMYACPRSGIRMGNFYDDSTSDFQPFCLRKVCDCYIAFSNLCDTPLRRMMGDGALWRIPERKKVEAVFFDVDGTLTDAQGRIPDRTVSVLEYMAKRLPLYLSTALPVSHAKKRLGNVFGLFSGGVFADGGLLCYGETIECVPIANPMTAGFPGCRVTRYTREGKVFKYAVLAPNTREAVRWLTELDEEAYQLYQEGRLLTVVDSKASKKNGLITLCARLGISLREVLVVGNTMHDWPMMSVAGYSCAVMDAEEKLRKLSGYVLNPDSIPVFFDILEHHHHHH,not soluble
